# Data as given in US20220003772A1, “METHODS OF TREATING CANCER” (priority 2018, published 2022).
# Tests used:
# BCMA = molecular target: T1, BCMA (Homo sapiens, UniProt Q02223); assay: Dose escalation / expansion clinical study of J6M0-MMAF: response by IMWG criteria; type: in vivo; settings: expansion cohort of 35 subjects (Part2), dose 3.40 mg/kg; 21/35; 95% CI 42.1-76.1
# T1 construct: BCMA membrane expression is present on a subset of normal late-stage B cells and is universally detected on normal and malignant plasma cells; endogenous in cells; host or cells: plasma/myeloma cells of the clinical study subjects (in vivo)
# T1 sequence (Q02223 1-184): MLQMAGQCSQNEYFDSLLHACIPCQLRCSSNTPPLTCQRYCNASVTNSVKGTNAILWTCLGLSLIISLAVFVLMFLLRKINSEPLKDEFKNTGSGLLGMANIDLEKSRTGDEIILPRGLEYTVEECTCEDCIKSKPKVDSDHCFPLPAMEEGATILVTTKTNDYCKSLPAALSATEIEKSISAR
# free sBCMA = molecular target: T2, free sBCMA (Homo sapiens, UniProt Q02223); assay: Reduction of free sBCMA in serum after infusion (free sBCMA MSD immunoassay); type: in vivo; settings: at higher dose levels
# T2 construct: the extracellular portion of the BCMA receptor is cleaved from the membrane of the plasma cell surface; from tissue; host or cells: serum of clinical study subjects
# T2 sequence (Q02223 1-54 limits assumed): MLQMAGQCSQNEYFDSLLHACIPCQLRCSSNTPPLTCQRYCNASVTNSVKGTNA
# Description: In a dose escalation clinical study, 38 subjects were treated with J6M0-MMAF (Part1). The doses ranged from 0.03 mg/kg up to 4.60 mg/kg (0.03 mg/kg, 0.06 mg/kg, 0.12 mg/kg, 0.24 mg/kg, 0.48 mg/kg, 0.96 mg/kg, 1.92 mg/kg, 2.5 mg/kg, 3.4 mg/kg, and 4.6 mg/kg). An expansion cohort of 35 subjects followed at a dose of 3.40 mg/kg (Part2). […] Levels of circulating soluble BCMA (sBCMA) were followed during these studies. Soluble BCMA was measured in serum samples collected at pre- and post-infusion of J6M0-MMAF. Immunoassays (FIG. 1) were used to determine the levels of free sBCMA (FIG. 1a) and J6M0-MMAF-bound sBCMA (FIG. 1b).
# Free sBCMA Assay Protocol (FIG. 1a) 1.1. Preparation of Anti-BCMA Antibody Coated Plates (3 μg/ml)
# 1. An appropriate volume (˜3 mL per plate) of capture coating antibody was prepared—anti-BCMA antibody (J6M0) at 3 μg/mL in DPBS.
# 2. […]
# 1. 1×MSD read buffer was prepared as follows:
# 5 mL of 4×MSD read buffer T (Meso Scale Discovery #R92TC-1) plus 15 mL of Milli-Q water.
# 3. […], of 1× read buffer was transferred into to each well of the assay plate.
# 4. The MSD assay plate was read immediately by using the MSD Sector Imager 6000 (Meso Scale Discovery).
# The binding of J6M0-MMAF to sBCMA was measured by comparing the post-infusion levels of free sBCMA measured 60 minutes after the start of infusion to those found at pre-infusion. […]
substance,measurement,setting,value
J6M0-MMAF,overall response rate (ORR) by IMWG criteria,BCMA,60%
same,binding of sBCMA by J6M0-MMAF in patients,free sBCMA,binds a large fraction of sBCMA
